What was measured:
[1] = target: T1, recombinant human VEGF165 (human, UniProt P15692 207-395); experiment: cell-based or functional assay
[2] = target: T2, recombinant human PDGF-BB (human, UniProt P01127 82-190); experiment: cell-based or functional assay
[3] = target: T2, recombinant human PDGF-BB; experiment: competition ELISA: DVD-Ig titrated against biotinylated hPDGF-BB binding to coated hPDGF-Rbeta-Fc
Protocol: Plates were then washed four times with wash buffer (TBS, 0.05% Tween-20) and blocked with Superblock blocking buffer (Thermo Scientific, cat#37535). During the blocking step, supernatants, antibodies, benchmark compounds or DVD-Ig were diluted in assay diluent (10% Superblock containing 0.05% surfactamps) and an eight point titration of each sample molecule was performed. […] Following incubation, plates were washed four times with wash buffer. Detection reagent Streptavidin-polyHRP-40 (Fitzgerald, cat#65r-s104phrp) was diluted in assay diluent and added to plates (50 μL) for 45 minutes at 25° C. with shaking. Plates were washed four times with wash buffer and developed with the addition of Enhanced K-blue TMB substrate (Neogen, cat#308177). The reaction was stopped with 2N sulfuric acid (VWR, cat# BDH3500-1) and the absorbance was read at 450 nm-570 nm. […] Data was analyzed using Softmax Pro 4.8 software and IC₅₀ values calculated using a sigmoidal dose response (variable slope) fit in GraphPad Prism 5.

[4] = target: T1, recombinant human VEGF165; experiment: competition ELISA: DVD-Ig titrated against biotinylated hVEGF165 binding to coated hVEGFR2-Fc
Protocol: To identify molecules that could block the binding of hVEGF₁₆₅ to the hVEGF-R2 (KDR/Flk-1) receptor, a competition ELISA was performed. […] Plates were then washed four times with wash buffer (TBS, 0.05% Tween-20) and blocked with Superblock blocking buffer (Thermo Scientific, cat#37535). […] The pre-incubated sample/hVEGF₁₆₅ complex was added to the coated plate at 50 μL in duplicate and incubated for 30 minutes at 25° C. with shaking. Following incubation, plates were washed four times with wash buffer. Streptavidin-polyHRP-40 (Fitzgerald cal#65r-s104phrp) was diluted in assay diluent (10% Superblock containing 0.05% surfactamps) and added to plates (50 μL) for 45 minutes at 25° C. with shaking. Plates were washed four times with wash buffer and developed with the addition of Enhanced K-blue TMB substrate (Neogen cat#308177). The reaction was stopped with 2N sulfuric acid (VWR, cat# BDH3500-1) and the absorbance was read at 450 nm-570 nm. A decrease in observed optical density indicates the test molecule is blocking the hVEGF₁₆₅ binding to the hVEGF-R2-Fc. Data was analyzed using Softmax Pro 4.8 software and IC₅₀ values calculated using a sigmoidal dose response (variable slope) fit in GraphPad Prism 5.

[5] = target: T3, mouse PDGF-B (PR-1577160) (mouse, UniProt P31240 82-190); experiment: SPR (Biacore), binding protein captured by anti-human Fc, antigen injected
T3 construct: Recombinant; also called mouse PDGF-BB; mPDGF-BB
T3 sequence (P31240 82-190 limits assumed): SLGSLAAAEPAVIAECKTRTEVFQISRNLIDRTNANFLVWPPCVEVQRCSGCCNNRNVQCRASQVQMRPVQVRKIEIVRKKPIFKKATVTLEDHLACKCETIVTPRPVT
Protocol: (§1) Unreacted moieties on the biosensor surface were blocked with ethanolamine. For kinetic analysis, rate equations derived from the 1:1 Langmuir binding model were fitted simultaneously to multiple antigen injections (using global fit analysis) with the use of Scrubber 2 (BioLogic Software), Biacore Biaevaluation 4.0.1 software or Biacore T100 Evaluation software. Purified antibodies or DVD-Ig molecules were diluted in running buffer for capture across goat anti-human Fc reaction surfaces. Antibodies or DVD-Ig molecules to be captured as a ligand (1 μg/ml) were injected over reaction matrices at a flow rate of 10 μl/minute. During the assay, all measurements were referenced against the capture surface alone (i.e., with no captured antibody or DVD-Ig molecule). […] The equilibrium dissociation constant KD (M) of the reaction between antibodies and the target antigen was then calculated from the kinetic rate constants by the following formula: KD=Koff/Kₒₙ. Binding was recorded as a function of time and kinetic rate constants were calculated. In this assay, on-rates as fast as 10⁶M⁻¹s⁻¹ and off-rates as slow as 10⁻⁶ s⁻¹ could be measured.

[6] = target: T4, human VEGF 165 (PR-1350437) (human, UniProt P15692 207-395); experiment: as above
T4 construct: Purified recombinant protein; also called hVEGF165
Protocol: as §1

[7] = target: T5, human VEGF 111 (PR-1520687) (human, UniProt P15692-10 27-137); experiment: as above
T5 construct: also called hVEGF111
T5 sequence (looked up): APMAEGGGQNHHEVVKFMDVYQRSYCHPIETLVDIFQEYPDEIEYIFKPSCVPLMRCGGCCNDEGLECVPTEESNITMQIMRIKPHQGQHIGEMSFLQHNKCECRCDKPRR
Protocol: as §1

[8] = target: T6, human PDGF-B (PR-1373790) (human, UniProt P01127 82-190); experiment: as above
T6 construct: Soluble recombinant PDGF-BB homodimer; also called human PDGF-BB; hPDGF-BB
Protocol: as §1

[9] = target: T7, human VEGF 121 (PR-1515941) (human, UniProt P15692 207-395); experiment: as above
T7 construct: Recombinant isoform; also called hVEGF121
T7 sequence: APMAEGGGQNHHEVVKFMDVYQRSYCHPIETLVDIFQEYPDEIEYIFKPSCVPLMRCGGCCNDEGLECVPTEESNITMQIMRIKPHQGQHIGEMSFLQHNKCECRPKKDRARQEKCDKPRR
Protocol: as §1

[10] = target: T8, cyno PDGF-B (PR-1575400) (cynomolgus monkey, UniProt P01127 82-190 (human entry), limits assumed); experiment: as above
T8 construct: Recombinant; also called cynomolgus monkey PDGF-BB; cynoPDGF-BB
T8 chain: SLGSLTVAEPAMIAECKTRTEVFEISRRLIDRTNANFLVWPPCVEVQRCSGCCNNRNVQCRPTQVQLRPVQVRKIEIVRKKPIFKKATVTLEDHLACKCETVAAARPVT
Protocol: as §1

B1: 4G8.3-GS(9)-9E8.4 (g) DVD-Ig (PR-1572102) (bispecific antibody, human IgG1, kappa, L234A L235A)
heavy: EVQLVQSGSELKKPGASVKVSCKASGYTFTNYGMYWVRQAPGQGLEWMGWINTETGKPTYADDFKGRFVFSLDTSVSTAYLQISSLKAEDTAVYYCARTNYYYRSYIFYFDYWGQGTMVTVSSGGGGSGGGGSEVTLRESGPALVKPTQTLTLTCTFSGFSLSTYGMGVGWIRQPPGKALEWLANIWWDDDKYYNPSLKNRLTISKDTSKNQVVLTMTNMDPVDTATYYCARIESIGTTYSFDYWGQGTMVTVSSASTKGPSVFPLAPSSKSTSGGTAALGCLVKDYFPEPVTVSWNSGALTSGVHTFPAVLQSSGLYSLSSVVTVPSSSLGTQTYICNVNHKPSNTKVDKKVEPKSCDKTHTCPPCPAPEAAGGPSVFLFPPKPKDTLMISRTPEVTCVVVDVSHEDPEVKFNWYVDGVEVHNAKTKPREEQYNSTYRVVSVLTVLHQDWLNGKEYKCKVSNKALPAPIEKTISKAKGQPREPQVYTLPPSREEMTKNQVSLTCLVKGFYPSDIAVEWESNGQPENNYKTTPPVLDSDGSFFLYSKLTVDKSRWQQGNVFSCSVMHEALHNAYTQKSLSLSPGK
light: DTVLTQSPATLSLSPGERATLSCRASESVSTHMHWYQQKPGQAPRLLIYGASNLESGVPARFSGSGSGTDFTLTISSLEPEDFAVYFCQQSWNDPFTFGQGTKLEIKRGGSGGGGSGEFVLTQSPGTLSLSPGERATLSCERSSGDIGDSYVSWYQQKPGQAPRLVIYADDQRPSGIPDRFSGSGSGTDFTLTISRLEPEDFAVYYCQSYDINIDIVFGGGTKVEIKRTVAAPSVFIFPPSDEQLKSGTASVVCLLNNFYPREAKVQWKVDNALQSGNSQESVTEQDSKDSTYSLSSTLTLSKADYEKHKVYACEVTHQGLSSPVTKSFNRGEC
notes: DVD-Ig, outer hBDB-4G8.3 (VEGF), inner hBDI-9E8.4 (PDGF); IgG1 L234A, L235A, H435A / kappa; also called 4G8.3-GS-9E8.4 (g); DVD-Ig-1
HMVEC-d hVEGF165 Potency IC50 [1]: 0.417 nM | NIH-3T3 hPDGF-BB Potency IC50 [2]: 0.528 nM | IC50 [3]: > 5 nM | IC50 [4]: 0.157 nM

B2: 9E10.1-GS-33675 anti-VEGF/anti-PDGF DVD-Ig (PR-1610561) (bispecific antibody, human IgG1, kappa, L234A L235A)
heavy: EIQLVQSGSELKKPGASVKVSCKASGYTFTNYGMYWVKQAPGQGLEYMGWIDTETGRPTYADDFKGRFVFSLDTSVSTAYLQISSLKAEDTAVYFCARWSGDTTGIRGPWFAYWGQGTLVTVSSGGGGSGGGGSEVTLRESGPALVKPTQTLTLTCTFSGFSLSTYGMGVGWIRQPPGKALEWLANIWWDDDKYYNPSLKNRLTISKDTSKNQVVLTMTNMDPVDTATYYCARIESSGPKYSFDYWGQGTMVTVSSASTKGPSVFPLAPSSKSTSGGTAALGCLVKDYFPEPVTVSWNSGALTSGVHTFPAVLQSSGLYSLSSVVTVPSSSLGTQTYICNVNHKPSNTKVDKKVEPKSCDKTHTCPPCPAPEAAGGPSVFLFPPKPKDTLMISRTPEVTCVVVDVSHEDPEVKFNWYVDGVEVHNAKTKPREEQYNSTYRVVSVLTVLHQDWLNGKEYKCKVSNKALPAPIEKTISKAKGQPREPQVYTLPPSREEMTKNQVSLTCLVKGFYPSDIAVEWESNGQPENNYKTTPPVLDSDGSFFLYSKLTVDKSRWQQGNVFSCSVMHEALHNAYTQKSLSLSPGK
light: DIRMTQSPSSLSASVGDRVTIECLASEDIYSDLAWYQQKPGKSPKLLIYNANGLQNGVPSRFSGSGSGTDYSLTISSLQPEDVATYFCQQYNYFPGTFGQGTKLEIKGGSGGGGSGGEIVLTQSPGTLSLSPGERATLSCRASSGSIWYSFVSWYQQKPGQAPRLLIYADDQRASGIPDRFSGSGSGTDFTLTISRLEPEDFAVYYCQSYGINIDVVFGGGTKVEIKRTVAAPSVFIFPPSDEQLKSGTASVVCLLNNFYPREAKVQWKVDNALQSGNSQESVTEQDSKDSTYSLSSTLTLSKADYEKHKVYACEVTHQGLSSPVTKSFNRGEC
notes: DVD-Ig: outer domain hBEW-9E10.1 (VEGF), inner domain CL-33675 (PDGF), linkers GS-H10 / GS-L10(dR), human IgG1 L234A, L235A, H435A, kappa; Lot 2213329; also called hu VEGF 9E10.1-GS-hu PDGF 33675 [hu IgG1/k]; LALA H435A
Kd [5]: ≤ 5.2 pM | koff [5]: 5.2e-05 s⁻¹ | kon [5]: ≥ 1e+07 M⁻¹ s⁻¹ | Kd [6]: 0.065 nM | koff [6]: 3.4e-05 s⁻¹ | kon [6]: 520000 M⁻¹ s⁻¹ | Kd [7]: 0.29 nM | koff [7]: 4.3e-05 s⁻¹ | kon [7]: 150000 M⁻¹ s⁻¹ | Kd [8]: ≤ 5.2 pM | koff [8]: 5.2e-05 s⁻¹ | kon [8]: ≥ 1e+07 M⁻¹ s⁻¹ | Kd [9]: 0.23 nM | koff [9]: 4.1e-05 s⁻¹ | kon [9]: 180000 M⁻¹ s⁻¹ | Kd [10]: ≤ 0.81 pM | koff [10]: 8.1e-06 s⁻¹ | kon [10]: ≥ 1e+07 M⁻¹ s⁻¹

B3: 4G8.3-SL-9E8.4 (g) DVD-Ig (PR-1572105) (bispecific antibody, human IgG1, kappa, L234A L235A)
heavy: EVQLVQSGSELKKPGASVKVSCKASGYTFTNYGMYWVRQAPGQGLEWMGWINTETGKPTYADDFKGRFVFSLDTSVSTAYLQISSLKAEDTAVYYCARTNYYYRSYIFYFDYWGQGTMVTVSSASTKGPEVTLRESGPALVKPTQTLTLTCTFSGFSLSTYGMGVGWIRQPPGKALEWLANIWWDDDKYYNPSLKNRLTISKDTSKNQVVLTMTNMDPVDTATYYCARIESIGTTYSFDYWGQGTMVTVSSASTKGPSVFPLAPSSKSTSGGTAALGCLVKDYFPEPVTVSWNSGALTSGVHTFPAVLQSSGLYSLSSVVTVPSSSLGTQTYICNVNHKPSNTKVDKKVEPKSCDKTHTCPPCPAPEAAGGPSVFLFPPKPKDTLMISRTPEVTCVVVDVSHEDPEVKFNWYVDGVEVHNAKTKPREEQYNSTYRVVSVLTVLHQDWLNGKEYKCKVSNKALPAPIEKTISKAKGQPREPQVYTLPPSREEMTKNQVSLTCLVKGFYPSDIAVEWESNGQPENNYKTTPPVLDSDGSFFLYSKLTVDKSRWQQGNVFSCSVMHEALHNAYTQKSLSLSPGK
light: DTVLTQSPATLSLSPGERATLSCRASESVSTHMHWYQQKPGQAPRLLIYGASNLESGVPARFSGSGSGTDFTLTISSLEPEDFAVYFCQQSWNDPFTFGQGTKLEIKRTVAAPSVFIFPPEFVLTQSPGTLSLSPGERATLSCERSSGDIGDSYVSWYQQKPGQAPRLVIYADDQRPSGIPDRFSGSGSGTDFTLTISRLEPEDFAVYYCQSYDINIDIVFGGGTKVEIKRTVAAPSVFIFPPSDEQLKSGTASVVCLLNNFYPREAKVQWKVDNALQSGNSQESVTEQDSKDSTYSLSSTLTLSKADYEKHKVYACEVTHQGLSSPVTKSFNRGEC
notes: DVD-Ig, outer hBDB-4G8.3 (VEGF), inner hBDI-9E8.4 (PDGF); IgG1 L234A, L235A, H435A / kappa; also called DVD-Ig-3
HMVEC-d hVEGF165 Potency IC50 [1]: 0.347 nM | NIH-3T3 hPDGF-BB Potency IC50 [2]: 0.29 nM | IC50 [3]: > 5 nM | IC50 [4]: 0.111 nM

— US20170015742A1 (published 2017)
